# Experimental data as given in publication PMC10681739, “High-throughput data and modeling reveal insights into the mechanisms of cooperative DNA-binding by transcription factor proteins”.
# Biological target: RUNX1 (Homo sapiens, UniProt Q01196)
# Assay: gcPBM; 2 nM RUNX1
# Details: tags: N-terminal GST (pDEST15), kept (PMC6008103); label: surface-attached array probe
# RUNX1, sequence (Q01196 whole entry): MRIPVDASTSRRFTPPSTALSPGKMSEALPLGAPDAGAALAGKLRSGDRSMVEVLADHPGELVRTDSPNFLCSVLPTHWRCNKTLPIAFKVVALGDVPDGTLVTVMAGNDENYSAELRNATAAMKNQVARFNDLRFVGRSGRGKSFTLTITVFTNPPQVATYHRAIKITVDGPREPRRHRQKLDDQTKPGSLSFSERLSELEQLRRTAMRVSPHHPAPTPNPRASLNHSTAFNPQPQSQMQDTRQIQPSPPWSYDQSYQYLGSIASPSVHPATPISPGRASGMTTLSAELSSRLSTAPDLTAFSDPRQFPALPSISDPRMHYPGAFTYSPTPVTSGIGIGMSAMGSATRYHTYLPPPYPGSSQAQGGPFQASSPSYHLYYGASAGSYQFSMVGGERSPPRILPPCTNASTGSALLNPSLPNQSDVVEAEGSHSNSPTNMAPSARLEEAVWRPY
row,Binder,binding signal
1,Table S3 C row 97 (dsDNA) DNA 1: CACCTGCTACTCAAAGTTCCGCCTCTCTTCAGCGAG DNA 2: CTCGCTGAAGAGAGGCGGAACTTTGAGTAGCAGGTG,"779 PBM fluorescence, median of replicate spots"
2,Table S3 C row 191 (dsDNA) DNA 1: GATTGGTTCTCTAAGCTTCCGTCAGTTTACAATCCT DNA 2: AGGATTGTAAACTGACGGAAGCTTAGAGAACCAATC,"775 PBM fluorescence, median of replicate spots"
3,Table S3 C row 91 (dsDNA) DNA 1: CACATACTACTACAACTTCCGGCAGGCTCCGCGCCC DNA 2: GGGCGCGGAGCCTGCCGGAAGTTGTAGTAGTATGTG,"795 PBM fluorescence, median of replicate spots"
4,Table S3 C row 55 (dsDNA) DNA 1: GGGTTCATGTTTAGCAGGAAGTTGAAATGACTCACC DNA 2: GGTGAGTCATTTCAACTTCCTGCTAAACATGAACCC,"803 PBM fluorescence, median of replicate spots"
5,Table S3 C row 45 (dsDNA) DNA 1: CCGCTGGGGCAGGAGTTTCCGGCGGACTCGGCTAGG DNA 2: CCTAGCCGAGTCCGCCGGAAACTCCTGCCCCAGCGG,"802 PBM fluorescence, median of replicate spots"
6,Table S3 C row 84 (dsDNA) DNA 1: GCTTCTGGGAGAAGCCGGAAGAGACCTGACCCTGAA DNA 2: TTCAGGGTCAGGTCTCTTCCGGCTTCTCCCAGAAGC,"782 PBM fluorescence, median of replicate spots"
7,Table S3 C row 14 (dsDNA) DNA 1: TCCTGCCGACGTGTTCTTCCGGTGGCGGAGCGGCGG DNA 2: CCGCCGCTCCGCCACCGGAAGAACACGTCGGCAGGA,"791 PBM fluorescence, median of replicate spots"
8,Table S3 C row 92 (dsDNA) DNA 1: TCCCTAGTTTCTGCCCGGAAGATGGAGCCGCCATCT DNA 2: AGATGGCGGCTCCATCTTCCGGGCAGAAACTAGGGA,"788 PBM fluorescence, median of replicate spots"
9,Table S3 C row 99 (dsDNA) DNA 1: CGCTCCAGGGCCTCCCGGATGGCCTAGTCGGGCCCG DNA 2: CGGGCCCGACTAGGCCATCCGGGAGGCCCTGGAGCG,"786 PBM fluorescence, median of replicate spots"
10,Table S3 C row 190 (dsDNA) DNA 1: CGCTCGTAAGTGCTCCGGATGGAATCTGGTGCAGGG DNA 2: CCCTGCACCAGATTCCATCCGGAGCACTTACGAGCG,"780 PBM fluorescence, median of replicate spots"
11,Table S3 C row 111 (dsDNA) DNA 1: GGATCCAGGACACTCCGGAAGACATCGTGCTGGAAG DNA 2: CTTCCAGCACGATGTCTTCCGGAGTGTCCTGGATCC,"774 PBM fluorescence, median of replicate spots"
12,Table S3 C row 152 (dsDNA) DNA 1: TTTCCCCGACCCCGCCGGAAGACCAGGCCGGCGCGG DNA 2: CCGCGCCGGCCTGGTCTTCCGGCGGGGTCGGGGAAA,"787 PBM fluorescence, median of replicate spots"
13,Table S3 C row 124 (dsDNA) DNA 1: ACTTGGGGCATGCAATTTCCGGCAGCACAGAAAACA DNA 2: TGTTTTCTGTGCTGCCGGAAATTGCATGCCCCAAGT,"766 PBM fluorescence, median of replicate spots"
14,Table S3 C row 112 (dsDNA) DNA 1: ACGTTGCCTCACTGCAGGAAGTGACCCAGGCCTTGC DNA 2: GCAAGGCCTGGGTCACTTCCTGCAGTGAGGCAACGT,"771 PBM fluorescence, median of replicate spots"
15,Table S3 C row 18 (dsDNA) DNA 1: GCTGTGATTGCCTCACTTCCTGTGTCATGTGACGCT DNA 2: AGCGTCACATGACACAGGAAGTGAGGCAATCACAGC,"805 PBM fluorescence, median of replicate spots"
16,Table S3 C row 56 (dsDNA) DNA 1: CGCTCAGAGCTACGGCGGAAATGCCGCTCTTTTAAC DNA 2: GTTAAAAGAGCGGCATTTCCGCCGTAGCTCTGAGCG,"786 PBM fluorescence, median of replicate spots"
17,Table S3 C row 160 (dsDNA) DNA 1: ACCCCGTAGCCGGCGCTTCCTGCCGAGGCTGGGGTC DNA 2: GACCCCAGCCTCGGCAGGAAGCGCCGGCTACGGGGT,"766 PBM fluorescence, median of replicate spots"
18,Table S3 C row 78 (dsDNA) DNA 1: ATTCCAATGGCAGGCAGGAAATCTTGTAGTAGGTGA DNA 2: TCACCTACTACAAGATTTCCTGCCTGCCATTGGAAT,"802 PBM fluorescence, median of replicate spots"
19,Table S3 C row 155 (dsDNA) DNA 1: TCCAGGCACTATTTTCGGAAGCAGAGACACAGTGCC DNA 2: GGCACTGTGTCTCTGCTTCCGAAAATAGTGCCTGGA,"791 PBM fluorescence, median of replicate spots"
20,Table S3 C row 195 (dsDNA) DNA 1: TCGCGCTGGACGAAGCGGAAGAAGATGGCGCTCACC DNA 2: GGTGAGCGCCATCTTCTTCCGCTTCGTCCAGCGCGA,"794 PBM fluorescence, median of replicate spots"
21,Table S3 C row 95 (dsDNA) DNA 1: CGCAGGGTCACGTGACATCCTGCCTCGCCCCGCCCA DNA 2: TGGGCGGGGCGAGGCAGGATGTCACGTGACCCTGCG,"783 PBM fluorescence, median of replicate spots"
22,Table S3 C row 85 (dsDNA) DNA 1: CAGTCTGGCCCTCCACTTCCTGTTTTTATAAATGAA DNA 2: TTCATTTATAAAAACAGGAAGTGGAGGGCCAGACTG,"810 PBM fluorescence, median of replicate spots"
23,Table S3 C row 28 (dsDNA) DNA 1: GTTCCTAGTCCGCTCCGGAAATGCAACTGCGTACGG DNA 2: CCGTACGCAGTTGCATTTCCGGAGCGGACTAGGAAC,"793 PBM fluorescence, median of replicate spots"

row,Binder,binding signal
1,Table S3 C row 51 (dsDNA) DNA 1: CACAGAGACACCAACAGGAAGAGACCAGAGAGCCAA DNA 2: TTGGCTCTCTGGTCTCTTCCTGTTGGTGTCTCTGTG,"807 PBM fluorescence, median of replicate spots"
2,Table S3 C row 24 (dsDNA) DNA 1: CCCACGCTCTGCGTGCTTCCGGCGAGCAAAGCCCCG DNA 2: CGGGGCTTTGCTCGCCGGAAGCACGCAGAGCGTGGG,"766 PBM fluorescence, median of replicate spots"
3,Table S3 C row 159 (dsDNA) DNA 1: GTAAATACACTCATGTTTCCGCTCTCAGCCGTCAGT DNA 2: ACTGACGGCTGAGAGCGGAAACATGAGTGTATTTAC,"801 PBM fluorescence, median of replicate spots"
4,Table S3 C row 67 (dsDNA) DNA 1: AAAAAAAAAAAAAAAGTTCCGGCCGGGCTGCGCCTC DNA 2: GAGGCGCAGCCCGGCCGGAACTTTTTTTTTTTTTTT,"810 PBM fluorescence, median of replicate spots"
5,Table S3 C row 66 (dsDNA) DNA 1: CCAGGACAGCACCTATTTCCTGCTGGTGTAACAGAG DNA 2: CTCTGTTACACCAGCAGGAAATAGGTGCTGTCCTGG,"778 PBM fluorescence, median of replicate spots"
6,Table S3 C row 15 (dsDNA) DNA 1: CAGCCAGCCCTCGCACGGAAGCGAACTTGCTGTCAC DNA 2: GTGACAGCAAGTTCGCTTCCGTGCGAGGGCTGGCTG,"769 PBM fluorescence, median of replicate spots"
7,Table S3 C row 40 (dsDNA) DNA 1: GCACCTGTATTGCCGTTTCCGGTTCGCCTTCGGAGC DNA 2: GCTCCGAAGGCGAACCGGAAACGGCAATACAGGTGC,"799 PBM fluorescence, median of replicate spots"
8,Table S3 C row 169 (dsDNA) DNA 1: CGCGGGCCCGGCCAGCGGAAGCCCCTGCGCCCGCGC DNA 2: GCGCGGGCGCAGGGGCTTCCGCTGGCCGGGCCCGCG,"779 PBM fluorescence, median of replicate spots"
9,Table S3 C row 38 (dsDNA) DNA 1: AGTGAAACATCAGAGCTTCCTGTTACATCACTCTGA DNA 2: TCAGAGTGATGTAACAGGAAGCTCTGATGTTTCACT,"789 PBM fluorescence, median of replicate spots"
10,Table S3 C row 80 (dsDNA) DNA 1: CAAAAGGGCTGCCAGTTTCCGCCCCTTCTAGCGAGC DNA 2: GCTCGCTAGAAGGGGCGGAAACTGGCAGCCCTTTTG,"794 PBM fluorescence, median of replicate spots"
11,Table S3 C row 34 (dsDNA) DNA 1: TTACGGCAAGCCTCACTTCCGGTCTGAACATTACGG DNA 2: CCGTAATGTTCAGACCGGAAGTGAGGCTTGCCGTAA,"808 PBM fluorescence, median of replicate spots"
12,Table S3 C row 139 (dsDNA) DNA 1: TAAATGGAAAGCATACATCCTGTTTTTTTGCTGTAG DNA 2: CTACAGCAAAAAAACAGGATGTATGCTTTCCATTTA,"802 PBM fluorescence, median of replicate spots"
13,Table S3 C row 17 (dsDNA) DNA 1: CGCGGGTCATGTGACCGGAAGGGCTCCTCACGGACG DNA 2: CGTCCGTGAGGAGCCCTTCCGGTCACATGACCCGCG,"798 PBM fluorescence, median of replicate spots"
14,Table S3 C row 148 (dsDNA) DNA 1: GGCTGCCCGTACTCCCGGAAGCCGAATCCCGGCTGG DNA 2: CCAGCCGGGATTCGGCTTCCGGGAGTACGGGCAGCC,"775 PBM fluorescence, median of replicate spots"
15,Table S3 C row 196 (dsDNA) DNA 1: GGGGTTCAGTGCCTCTTTCCGTTGGAGAGAACCTCT DNA 2: AGAGGTTCTCTCCAACGGAAAGAGGCACTGAACCCC,"810 PBM fluorescence, median of replicate spots"
16,Table S3 C row 2 (dsDNA) DNA 1: TGGACCTAGGGCAGACGGAAGTTTTGGGAGGGCCGG DNA 2: CCGGCCCTCCCAAAACTTCCGTCTGCCCTAGGTCCA,"810 PBM fluorescence, median of replicate spots"
17,Table S3 C row 86 (dsDNA) DNA 1: CGCGTGATGGACGCCCGGAAGCCGGCACAACAAATG DNA 2: CATTTGTTGTGCCGGCTTCCGGGCGTCCATCACGCG,"777 PBM fluorescence, median of replicate spots"
18,Table S3 C row 109 (dsDNA) DNA 1: GCAGCACGCAGCAACCGGAAGTCAATGGACGAAGAC DNA 2: GTCTTCGTCCATTGACTTCCGGTTGCTGCGTGCTGC,"792 PBM fluorescence, median of replicate spots"
19,Table S3 C row 102 (dsDNA) DNA 1: CCCCGCGTCCCAGACCGGAAGAAGCCCGGCGCAGAC DNA 2: GTCTGCGCCGGGCTTCTTCCGGTCTGGGACGCGGGG,"770 PBM fluorescence, median of replicate spots"
20,Table S3 C row 59 (dsDNA) DNA 1: TCTTACGGGCGGGGCCGGAAGAGGGAGTCGCGCTGC DNA 2: GCAGCGCGACTCCCTCTTCCGGCCCCGCCCGTAAGA,"793 PBM fluorescence, median of replicate spots"
21,Table S3 C row 131 (dsDNA) DNA 1: AGTTGGTAGCGCCAACGGAAGCCCATGCCAAACTTG DNA 2: CAAGTTTGGCATGGGCTTCCGTTGGCGCTACCAACT,"778 PBM fluorescence, median of replicate spots"
22,Table S3 C row 4 (dsDNA) DNA 1: CTCTCAACCCAGCCGCTTCCTGGTTGTTCGTCGCAA DNA 2: TTGCGACGAACAACCAGGAAGCGGCTGGGTTGAGAG,"782 PBM fluorescence, median of replicate spots"
